Values of other authors, collected in PMC2884063.

Biological target: Importin β (Homo sapiens) (UniProt Q14974)
UniProt Q14974, sequence (Q14974 whole entry): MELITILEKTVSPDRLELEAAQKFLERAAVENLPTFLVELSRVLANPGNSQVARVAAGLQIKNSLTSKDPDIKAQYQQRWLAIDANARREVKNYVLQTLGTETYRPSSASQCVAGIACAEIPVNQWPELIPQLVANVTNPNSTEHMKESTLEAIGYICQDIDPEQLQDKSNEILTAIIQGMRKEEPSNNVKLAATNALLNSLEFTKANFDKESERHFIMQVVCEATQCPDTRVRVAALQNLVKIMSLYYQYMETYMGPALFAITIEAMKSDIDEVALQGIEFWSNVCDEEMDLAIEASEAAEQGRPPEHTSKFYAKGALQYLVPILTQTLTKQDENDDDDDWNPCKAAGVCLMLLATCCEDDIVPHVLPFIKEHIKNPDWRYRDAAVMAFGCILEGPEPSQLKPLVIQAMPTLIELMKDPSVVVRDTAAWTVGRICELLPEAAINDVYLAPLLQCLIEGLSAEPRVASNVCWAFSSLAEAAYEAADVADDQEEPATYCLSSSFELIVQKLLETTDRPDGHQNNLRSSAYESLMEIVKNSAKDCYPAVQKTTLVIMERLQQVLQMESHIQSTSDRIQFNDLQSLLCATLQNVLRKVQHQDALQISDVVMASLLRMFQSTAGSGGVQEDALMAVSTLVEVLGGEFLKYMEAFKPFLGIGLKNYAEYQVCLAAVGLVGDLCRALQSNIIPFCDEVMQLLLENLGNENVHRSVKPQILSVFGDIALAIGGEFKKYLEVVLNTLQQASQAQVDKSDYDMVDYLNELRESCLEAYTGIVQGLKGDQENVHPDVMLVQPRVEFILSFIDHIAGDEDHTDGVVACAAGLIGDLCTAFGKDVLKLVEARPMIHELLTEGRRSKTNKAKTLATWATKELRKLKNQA

Q: With “Snp1 (snurportin 1) IBB (from UniProt O95149)” as the substance, how does the Kd read?
A: The Kd was 2 nM.
